The text below walks through data of patent US20240376156A1, “MULTIPLE DE NOVO DESIGNED PROTEIN BINDING PROTEINS” (UNIVERSITY OF WASHINGTON, priority 2021, published 2024).

One data set deals with T1, IL-7Rα (Homo sapiens, UniProt P16871).
T1 construct: IL-7Rα (residues 37-231, Uniprot ID P16871); IgK signal peptide (N); made in house; host or cells: mammalian cells
T1 sequence (P16871 37-231): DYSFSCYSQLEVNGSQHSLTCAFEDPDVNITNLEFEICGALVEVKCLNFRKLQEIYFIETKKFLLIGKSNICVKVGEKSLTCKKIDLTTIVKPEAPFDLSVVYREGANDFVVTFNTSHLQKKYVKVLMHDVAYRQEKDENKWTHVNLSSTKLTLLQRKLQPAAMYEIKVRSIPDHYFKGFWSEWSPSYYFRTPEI
The experiment in a line: Biolayer interferometry binding to IL-7Rα.

The nature of data set [1]: Circular dichroism wavelength scans and temperature melts (Tm). It is filed as physicochemical. For orientation: Circular dichroism is the unequal absorption of left and right circularly polarised light.
In data set [2] the target is T2, FGFR2 ectodomain (residues 147-366) with C-terminal TEV/His/AviTag (human, UniProt P21802 147-366).
T2 construct: range 147-366; also called Fibroblast growth factor receptor 2
T2 sequence (P21802 other isoform, or with tags, fused parts or gaps limits assumed, form in doubt): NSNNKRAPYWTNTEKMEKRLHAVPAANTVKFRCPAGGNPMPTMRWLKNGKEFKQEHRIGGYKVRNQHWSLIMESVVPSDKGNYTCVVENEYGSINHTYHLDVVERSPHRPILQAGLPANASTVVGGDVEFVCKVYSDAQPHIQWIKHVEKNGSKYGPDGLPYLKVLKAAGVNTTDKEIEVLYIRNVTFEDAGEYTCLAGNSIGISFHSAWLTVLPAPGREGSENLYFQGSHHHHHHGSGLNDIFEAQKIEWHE
Description: biolayer interferometry. A general note: In BLI a coated tip is dipped into the sample, and binding shifts an interference pattern.

The target of data set [3] is T3, FGFR2 ectodomain (residues 147-366) (human, UniProt P21802 147-366).
T3 construct: range 147-366; also called FGER2; Fibroblast growth factor receptor 2
T3 sequence (P21802 other isoform, or with tags, fused parts or gaps limits assumed, form in doubt): as above
The experiment in a line: BLI (Octet); biotinylated target on streptavidin sensors, miniprotein as analyte.

Data set [4] has as its target T4, Biotinylated CD3 protein (Abcam Cat #ab205994) (human, UniProt P04234 22-105).
T4 construct: also called CD3δ; CD3 delta chain
The data set is described as above.

Data set [5] deals with T5, EGFR ectodomain (residues 25-525) (human, UniProt P00533 25-525).
T5 construct: also called EGER; Epidermal growth factor receptor
The description is as above.

The target in the next data set is T6, InsulinR (Homo sapiens, UniProt P06213).
T6 construct: InsulinR (residues ID 28-953, Uniprot ID P06213); IgK signal peptide (N); TEV cleavage site (C); 6-His-tag (C); AviTag (C); made in house; host or cells: mammalian cells
Description: Biolayer interferometry binding to InsulinR (miniprotein on AR2G biosensor, receptor as analyte).

Data set [6] has as its target T7, PDGFR ectodomain (residues 33-314) (human, UniProt P09619 33-314).
T7 construct: range 33-314; also called Platelet-derived growth factor receptor
The experiment in a line: BLI (Octet); biotinylated target on streptavidin sensors, miniprotein as analyte.

Data set [7] concerns the target IL-7Rα ectodomain (residues 37-231) (human, UniProt P16871 37-231). The description is as above.
Another data set has as its target T8, FGFR2 (Homo sapiens, UniProt P21802).
T8 construct: FGFR2 (residues 147-366, Uniprot ID P21802); IgK signal peptide (N); made in house; host or cells: mammalian cells
The experiment in a line: Biolayer interferometry binding to FGFR2.

A further data set relates to signaling through FGFR2. Description: Inhibition of native agonist signaling through FGFR2 on cells in culture. It counts as cell-based. The note with it: data not shown.
The target of data set [8] is T9, InsulinR ectodomain (residues 28-953) (human, UniProt P06213 28-953).
T9 construct: range 28-953; also called IR; Insulin receptor
The experiment in a line: BLI (Octet); miniprotein immobilized on AR2G sensors, insulin receptor as analyte.

Another data set addresses T10, IGF1R (Homo sapiens, UniProt P08069).
T10 construct: IGF1R (residues 31-930, Uniprot ID P08069); IgK signal peptide (N); made in house; host or cells: mammalian cells
The experiment in a line: Biolayer interferometry binding to IGF1R (MBP-tagged miniprotein as analyte).

Data set [9] has as its target T11, IGF1R ectodomain (residues 31-930) (human, UniProt P08069 31-930).
T11 construct: range 31-930; also called IGFIR; Insulin-like growth factor 1 receptor
The experiment in a line: BLI (Octet); biotinylated target on streptavidin sensors, MBP-tagged miniprotein as analyte.

The target of data set [10] is Human TrkA ECD (residues 36-382) with C-terminal BAP tag and 6xHis tag (human, UniProt P04629 36-382). The experiment in a line: biolayer interferometry.
Human TrkA ECD (residues 36-382) with C-terminal BAP tag and 6xHis tag, sequence (P04629 other isoform, or with tags, fused parts or gaps limits assumed): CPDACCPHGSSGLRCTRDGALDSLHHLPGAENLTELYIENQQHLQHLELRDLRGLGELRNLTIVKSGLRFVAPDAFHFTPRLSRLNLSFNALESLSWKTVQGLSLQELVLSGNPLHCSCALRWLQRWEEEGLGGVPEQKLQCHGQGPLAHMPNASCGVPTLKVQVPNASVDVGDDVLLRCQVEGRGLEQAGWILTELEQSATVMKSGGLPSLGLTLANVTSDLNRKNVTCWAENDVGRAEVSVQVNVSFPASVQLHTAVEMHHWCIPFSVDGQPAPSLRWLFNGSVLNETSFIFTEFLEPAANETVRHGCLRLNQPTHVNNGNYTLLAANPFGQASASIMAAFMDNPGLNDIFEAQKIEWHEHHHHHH
In data set [11] the target is human TrkA ECD (residues 36-382) (human, UniProt P04629 36-382). Description: BLI (Octet); biotinylated target on streptavidin sensors, miniprotein as analyte.
human TrkA ECD (residues 36-382), sequence (P04629 other isoform, or with tags, fused parts or gaps limits assumed): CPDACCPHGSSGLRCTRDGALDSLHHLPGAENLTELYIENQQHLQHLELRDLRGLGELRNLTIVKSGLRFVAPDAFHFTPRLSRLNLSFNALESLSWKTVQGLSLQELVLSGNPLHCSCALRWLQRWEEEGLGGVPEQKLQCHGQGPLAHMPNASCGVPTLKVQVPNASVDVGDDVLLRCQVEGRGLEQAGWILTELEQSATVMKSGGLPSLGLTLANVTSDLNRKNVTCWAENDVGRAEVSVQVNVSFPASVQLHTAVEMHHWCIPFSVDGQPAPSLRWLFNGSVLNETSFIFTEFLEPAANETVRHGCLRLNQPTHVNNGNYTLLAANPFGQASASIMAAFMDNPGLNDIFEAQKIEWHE
Data set [12] concerns the target Influenza A H3 hemagglutinin (A/Hong Kong/1/1968) ectodomain (Influenza A virus (A/Hong Kong/1/1968), UniProt Q91MA7 17-530). Described as above.
In data set [13] the target is T12, Influenza A H1 hemagglutinin (A/Puerto Rico/8/1934), ectodomain (Influenza A virus (A/Puerto Rico/8/1934), UniProt P03452 18-528).
T12 construct: extracellular domain
T12 sequence (P03452 18-528): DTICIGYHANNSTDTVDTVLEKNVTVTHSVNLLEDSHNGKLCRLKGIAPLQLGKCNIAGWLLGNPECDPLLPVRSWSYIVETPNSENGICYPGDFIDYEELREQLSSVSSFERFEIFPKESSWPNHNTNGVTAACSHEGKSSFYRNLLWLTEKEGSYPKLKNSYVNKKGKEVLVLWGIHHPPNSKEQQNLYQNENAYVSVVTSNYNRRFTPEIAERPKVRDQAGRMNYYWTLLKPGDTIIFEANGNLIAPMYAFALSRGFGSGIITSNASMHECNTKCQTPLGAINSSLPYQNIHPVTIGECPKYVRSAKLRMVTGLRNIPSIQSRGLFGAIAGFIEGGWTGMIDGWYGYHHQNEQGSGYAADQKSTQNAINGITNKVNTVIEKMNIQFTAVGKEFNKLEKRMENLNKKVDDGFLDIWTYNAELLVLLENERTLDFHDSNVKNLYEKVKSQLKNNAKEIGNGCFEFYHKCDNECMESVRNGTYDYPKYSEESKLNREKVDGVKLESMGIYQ
Description: method not named in the sentence (FIG. 7b).

The target in data set [14] is T13, TGF-β (Acro Biosystems Cat #TG1-H8217) (human, UniProt P01137 279-390).
T13 construct: also called TGFb; Transforming growth factor beta
T13 sequence (P01137 279-390 limits assumed): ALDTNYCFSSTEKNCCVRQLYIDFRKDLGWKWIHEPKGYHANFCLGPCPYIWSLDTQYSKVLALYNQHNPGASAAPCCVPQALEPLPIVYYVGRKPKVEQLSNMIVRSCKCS
Description: BLI (Octet); biotinylated target on streptavidin sensors, miniprotein as analyte.

For data set [15], the target named is T14, Tie2 ectodomain (residues 23-445) (human, UniProt Q02763 23-445).
T14 construct: range 23-445; also called Angiopoietin-1 receptor
T14 sequence (Q02763 other isoform, or with tags, fused parts or gaps limits assumed): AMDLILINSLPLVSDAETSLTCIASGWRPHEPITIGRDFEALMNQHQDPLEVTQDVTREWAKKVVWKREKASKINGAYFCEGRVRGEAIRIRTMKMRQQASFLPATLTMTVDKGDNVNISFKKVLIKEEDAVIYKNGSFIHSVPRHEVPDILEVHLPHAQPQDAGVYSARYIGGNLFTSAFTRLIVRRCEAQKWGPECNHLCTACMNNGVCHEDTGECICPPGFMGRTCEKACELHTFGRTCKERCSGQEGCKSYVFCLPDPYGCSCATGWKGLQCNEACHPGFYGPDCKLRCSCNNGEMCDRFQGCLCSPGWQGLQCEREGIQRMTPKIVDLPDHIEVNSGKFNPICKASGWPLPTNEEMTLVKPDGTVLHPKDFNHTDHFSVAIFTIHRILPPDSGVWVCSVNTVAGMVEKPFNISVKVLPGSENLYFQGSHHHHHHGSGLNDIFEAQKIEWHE
Description: BLI (Octet); biotinylated target on streptavidin sensors, MBP-tagged miniprotein as analyte.

For the next data set, the target named is T15, Tie2 (Homo sapiens, UniProt Q02763).
T15 construct: Tie2 (residues 23-445, Uniprot ID Q02763); IgK signal peptide (N); made in house; host or cells: mammalian cells
T15 sequence (Q02763 23-445): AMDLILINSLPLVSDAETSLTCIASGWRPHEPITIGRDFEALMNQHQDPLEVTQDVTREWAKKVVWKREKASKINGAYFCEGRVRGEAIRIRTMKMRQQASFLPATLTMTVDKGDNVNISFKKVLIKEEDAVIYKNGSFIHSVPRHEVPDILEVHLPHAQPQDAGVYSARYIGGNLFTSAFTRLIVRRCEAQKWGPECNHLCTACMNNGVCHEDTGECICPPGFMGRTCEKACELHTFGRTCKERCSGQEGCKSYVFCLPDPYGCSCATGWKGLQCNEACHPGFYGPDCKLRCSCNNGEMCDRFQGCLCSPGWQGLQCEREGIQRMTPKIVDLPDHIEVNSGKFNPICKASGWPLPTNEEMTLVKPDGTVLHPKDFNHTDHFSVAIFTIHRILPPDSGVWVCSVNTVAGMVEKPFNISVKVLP
The experiment in a line: Biolayer interferometry binding to Tie2 (MBP-tagged miniprotein as analyte).

Where two headings read alike, the source gives them in different places. Bounds are passed on as bounds.

IL-7Rα ectodomain (residues 37-231), sequence (P16871 other isoform, or with tags, fused parts or gaps limits assumed): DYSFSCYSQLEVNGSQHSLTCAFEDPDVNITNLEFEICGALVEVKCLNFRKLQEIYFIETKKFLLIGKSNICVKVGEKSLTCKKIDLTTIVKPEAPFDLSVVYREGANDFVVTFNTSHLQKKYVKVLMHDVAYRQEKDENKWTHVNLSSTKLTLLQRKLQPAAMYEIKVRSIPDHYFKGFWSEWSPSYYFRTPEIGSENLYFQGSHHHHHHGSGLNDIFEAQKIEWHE
T4 sequence (P04234 22-105 limits assumed): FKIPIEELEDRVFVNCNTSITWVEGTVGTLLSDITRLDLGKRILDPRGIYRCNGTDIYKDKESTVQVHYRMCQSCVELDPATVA
T8 sequence (P21802 147-366): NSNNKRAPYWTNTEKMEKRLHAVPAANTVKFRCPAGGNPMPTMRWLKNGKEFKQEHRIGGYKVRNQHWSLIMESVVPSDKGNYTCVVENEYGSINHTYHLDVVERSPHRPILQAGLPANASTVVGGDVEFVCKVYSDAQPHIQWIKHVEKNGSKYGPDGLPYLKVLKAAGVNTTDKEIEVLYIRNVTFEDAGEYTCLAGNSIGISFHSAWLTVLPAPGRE
T7 sequence (P09619 other isoform, or with tags, fused parts or gaps limits assumed): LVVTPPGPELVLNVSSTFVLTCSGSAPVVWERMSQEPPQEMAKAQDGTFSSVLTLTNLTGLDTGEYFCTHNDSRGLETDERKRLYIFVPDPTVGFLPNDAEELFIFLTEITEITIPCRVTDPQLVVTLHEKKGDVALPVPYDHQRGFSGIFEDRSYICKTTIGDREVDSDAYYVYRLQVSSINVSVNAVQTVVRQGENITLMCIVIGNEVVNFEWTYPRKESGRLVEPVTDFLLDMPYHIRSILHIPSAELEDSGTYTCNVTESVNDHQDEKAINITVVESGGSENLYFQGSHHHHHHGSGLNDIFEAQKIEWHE
Influenza A H3 hemagglutinin (A/Hong Kong/1/1968) ectodomain, sequence (Q91MA7 17-530): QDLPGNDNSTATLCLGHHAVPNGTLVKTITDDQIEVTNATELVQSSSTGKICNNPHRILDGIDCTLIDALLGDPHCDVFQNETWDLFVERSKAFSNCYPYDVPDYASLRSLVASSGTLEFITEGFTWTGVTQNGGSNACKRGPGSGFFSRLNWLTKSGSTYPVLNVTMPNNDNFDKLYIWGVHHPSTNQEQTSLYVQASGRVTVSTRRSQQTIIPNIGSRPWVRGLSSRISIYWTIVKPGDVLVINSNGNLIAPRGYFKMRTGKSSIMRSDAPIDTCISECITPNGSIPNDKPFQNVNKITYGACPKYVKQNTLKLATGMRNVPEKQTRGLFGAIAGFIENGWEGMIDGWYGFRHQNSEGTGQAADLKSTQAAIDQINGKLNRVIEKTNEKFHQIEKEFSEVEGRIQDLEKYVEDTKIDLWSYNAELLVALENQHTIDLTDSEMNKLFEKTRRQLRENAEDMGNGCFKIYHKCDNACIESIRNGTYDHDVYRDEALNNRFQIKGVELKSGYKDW

As usually defined, the Kd is the equilibrium constant for the complex coming apart. In the case of “IL-7Rα_mb (SVIEKLRKLEKQARKQGDEVLVMLARMVLEYLEKGWVSEEDADESADRIEEVLKK)”, the Kd in the data set with IL-7Rα (target IL-7Rα, optimized sequence, read-out: Octet kD) was 0.312 nM. The molecule further yielded a TM in data set [1] (optimized sequence) of over 95 °C.

Turning to “IL-7Rα binder: de novo miniprotein binder for IL-7Rα targeting the IL-7 binding site; probably IL7Ra_mb2, SEQ ID NO: 760 (SVKKKVRKVEKKARKAGDELAVLLARRVLEALEKGLVSEEDADESADRIEEALKK)”, in the data set with IL-7Rα (targeting the IL-7 binding site), the “affinity for IL-7Rα (in words)” value was “picomolar affinity”.

B1: FGFR2_mb (optimized FGFR2 binder, purified from E. coli) (designed binder)
chain: MSHHHHHHHHSENLYFQSGGGDRRKEMDKVYRTAFKRITSTPDKEKRKEVVKEATEQLRRIAKDEEEKKKAAYMILFLKTLG
notes: also called FGFR2_mb3
Consider B1, for which the Kd in data set [2] is at most 1 nM.

B2: FGFR2_mb (designed binder)
chain: B1 chain
With B2, the TM in [1] (optimized sequence) is 71.1 ºC ° C. In data set [3], this molecule returned a dissociation constant (Kd) of 0.543 nM.

B3: CD3δ_mb (designed binder)
chain: MSHHHHHHHHSENLYFQSGGGNHIACEIHNPEAAKEIAKVANVRRVYFIKQPGNRYFVLLKNADPEGVKKVRSKYNVRCVIRE
In turn, B3 showed a TM in data set [1] (optimized sequence) of over 95 °C. The molecule further came in with a Kd in data set [4] of 612 nM.

B4: EGFRn_mb (designed binder)
chain: MSHHHHHHHHSENLYFQSGGGDHWEEVFRWALEHLQEATQQNDPQKAKKILEEAHKWLRRELSEEEARAVVRWLKQLVDRELS
The molecule B4 had a TM in [1] (optimized sequence) of over 95 °C. Further, the affinity in [5], expressed as Kd, was 1.7 nM.

B5: InsulinR binder: optimized de novo miniprotein binder to insulin receptor; probably InsulinR_mb5, SEQ ID NO: 788 (protein)
chain: DEELLELVYEAVEKNDPRLLFEAWMILASLLDKTGDPKIEELLRLLQLVDRGDPDARRRIKELFK
Turning to B5, the “binding affinity for InsulinR (in words)” value with InsulinR is “weak”.

B6: PDGFR_mb (designed binder)
chain: MSHHHHHHHHSENLYFQSGGGDDERLATLAFRALIKRAGVKNLDVKVTNGKVRVTITGRDQASFKALQLVFALARRLGLQVQIDTR
Turning to B6, the TM in data set [1] (optimized sequence) is over 95 °C. The molecule further returned a Kd in data set [6] of 53 nM.

B7: EGFRc_mb (designed binder)
chain: MSHHHHHHHHSENLYFQSGGGSLDEAKKLLQEAEKLARKLNDRMELAYVEFLKHILETAKKQNDKRTIESVRDMARDALEELQS
B7 gave a TM in data set [1] (optimized sequence) of 71.2 °C. In data set [5], this molecule displayed a Kd of 6.8 nM.

B8: IL-7Rα_mb (designed binder)
chain: MSHHHHHHHHSENLYFQSGGGSVIEKLRKLEKQARKQGDEVLVMLARMVLEYLEKGWVSEEDADESADRIEEVLKK
On to B8, for which binding in data set [7] was characterised by a dissociation constant (Kd) of 0.312 nM.

B9: FGFR2 binder: optimized de novo miniprotein binder to FGFR2; probably SEQ ID NO: 144 (protein)
chain: DRRKEMDKVYRTAFKRITSTPDKEKRKEVVKEATEQLRRIAKDEEEKKKAAYMILFLKTLG
As for B9, the “affinity for FGFR2 (in words)” value with FGFR2 is “picomolar”. In the data set with signaling through FGFR2, the “inhibition of signaling through FGFR2 by the native agonist” value is recorded as “strong inhibition of signaling”.

B10: InsulinR_mb (designed binder)
chain: MSHHHHHHHHSENLYFQSGGGDEELMELVYEAVEKNDPELLFEAWMELASLLDETGDPKIEEALGLLQQVDGGNPDAGRRIKELFK
In the case of B10, in data set [1] (optimized sequence), the TM came out at 65 °C ° C. In data set [8], this molecule returned a Kd of 270 nM.

B11: MBP-tagged IGF1R_mb (designed binder)
chain: STRNAEFIMLLLELCVKSKNDPQVQEYVKKVKKQVERLVGNGDEKKAEEVARKALEYCADG
notes: not shown: N-terminal 6 His-tag and MBP tag
In the case of B11, the “binding affinity for IGF1R (in words)” value in the data set with IGF1R was “weak and low”. The molecule also returned a TM in [1] (optimized sequence) of over 95 °C. The Kd in data set [9] was determined as 860 nM.

B12: TrkA_mb (optimized TrkA binder, purified from E. coli) (designed binder)
chain: MSHHHHHHHHSENLYFQSGGGRDEIKERIFKAVVRAIVTGNPEQLKEAKKLLEKLKKLGRLDQDAKKFEKAIRQVEKRLRS
Turning to B12, the Kd in [10] is at most 1 nM.

B13: TrkA_mb (designed binder)
chain: B12 chain
For B13, in data set [11], the Kd is 1.4 nM.

B14: H3_mb (designed binder)
chain: MSHHHHHHHHSENLYFQSGGGSQHEKFLEWMLRKIEEAIKRGNKISAEFLINLAKNFIHVLGDDEIRRRLERLERQLH
In data set [1], B14 returned a TM of over 95 °C. This molecule yielded a Kd in data set [12] of 320 nM.

B15: H3_mb (optimized H3 hemagglutinin binder, purified from E. coli) (designed binder)
chain: B14 chain
On to B15, for which, in [13], the binding result is recorded as “binds”.

B16: TGF-β_mb (designed binder)
chain: MSHHHHHHHHSENLYFQSGGGHCTIEVVGVDPEKVEAIAAAYGAEVCEKDGKFEIHLDDPHSAESAAVAISVLTNRPVRLQC
In the case of B16, the TM in data set [1] (optimized sequence) is over 95 °C. In data set [14], this molecule came in with a Kd of 270 nM.

B17: MBP-tagged Tie2_mb (designed binder)
chain: SIDEELERLLEEAGVDPELIDDLYAVIYQLYIRGLSDKDVLRFLLENLERDGTPLRRVVEELLKR
notes: as for B11
Regarding B17, in [15], the affinity, expressed as Kd, was 584 nM.

B18: Tie2_mb (protein)
chain: B17 chain
modifications: left off: large carriers
In data set [1] (optimized sequence), B18 registered a TM of over 95 °C.

B19: Tie2 binder: optimized de novo miniprotein binder to Tie2; probably Tie2_mb2, SEQ ID NO: 1451 (protein)
chain: B17 chain
Regarding B19, in the data set with Tie2, the “binding affinity for Tie2 (in words)” value is “weak and low”.
